Molecular target: FSFG6 (a segment of Nsp1FG that contains six repeats of the FxFG-type region) (S. cerevisiae)
Assay: SPR; XPR36 (BioRad), GLC chip; FG construct conjugated by its C-terminal cysteine to maleimide surface, quenched with beta-mercaptoethanol; analyte in TBT-PVP at 100 μl/min, association 15-120 s, dissociation 10 min, 25°C

“Kap95 (without the GST domain) (from UniProt Q06142 1-861) (natural protein)” showed a fastest association rate estimated from the kinetic model fits of 3e+06 M⁻¹ s⁻¹.
